Experimental findings from patent US6950754 are described below.

One assay addresses 6F. Briefly: size exclusion chromatography, self-association.
Assay [1] addresses pda8d. Briefly: sedimentation equilibrium, monomer-dimer-tetramer model; monomer-to-dimer self-association.
The target in assay [2] is pda8d. Briefly: sedimentation equilibrium, monomer-dimer-tetramer model; dimer-to-tetramer self-association.
For a further assay, the target named is 6B. Briefly: size exclusion chromatography, self-association.
The next assay addresses 6D. Briefly: size exclusion chromatography, self-association.
A further assay addresses 6C. Briefly: size exclusion chromatography, self-association.
The target in a further assay is 6E. Briefly: size exclusion chromatography, self-association.
In the next assay the target is 6A. Briefly: size exclusion chromatography, self-association.

B1: 6F (peptide)
peptide: RMAALEAKVAALLAKNAALEAEVAALKALVGER
modifications: not checked
Regarding B1, the oligomerization state (N) with 6F was 4.

B2: pda8d (peptide)
peptide: KPYTARIKGRTFSNEKELRDFLETFTGR
modifications: not checked
As to B2, the Kd with pda8d [1] was 500 to 1500 µM; in the assay with pda8d [2] it was > 4000 µM.

B3: 6B (peptide)
peptide: RMEKLEQKVKELLRKNERLEEEVERLKQLVGER
modifications: not checked
As to B3, the oligomerization state (N) with 6B stood at 2.

B4: 6D (peptide)
peptide: RMRELEEKVRRLLRKNEDLEREVKRLKELVGER
modifications: not checked
As for B4, the oligomerization state (N) with 6D worked out at 2.

B5: 6C (peptide)
peptide: RMARLEAKVAALLAKNRRLEREVARLKALVGER
modifications: not checked
Regarding B5, in the assay with 6C, the oligomerization state (N) worked out at 2.

B6: 6E (peptide)
peptide: RMNTLERKVAKLLSKNANLEHEVNTLKQLVGER
modifications: not checked
The molecule B6 gave an oligomerization state (N) in the assay with 6E of 2.

B7: 6A (peptide)
peptide: RMEKLEDKVRELLRKNRRLEEEVRRLKELVGER
modifications: not checked
B7 showed an oligomerization state (N) in the assay with 6A of 2.
